Measured values reported in paper PMC7961906, “CNBP Binds and Unfolds In Vitro G-Quadruplexes Formed in the SARS-CoV-2 Positive and Negative Genome Strands”.

Key:
[1] = target: T1, CNBP (ZNF9) (Homo sapiens, UniProt P62633 1-177); experiment: CD (G4 unfolding); 100 mM K+ folding; 8 uM, 1:1; EMSA: 20 mM HEPES pH 8.0, 10 mM MgCl2, 1 mM EDTA, 0.5 ug/uL heparin, 1 mM DTT, 1 ug/uL BSA, 10% glycerol, 100 mM KCl or LiCl, 0.75 uM RNA, 30 min 37 C; CD: 10 mM Tris-HCl pH 7.5 + 100/200 mM KCl, protein incubation 30 min 37 C, spectra at 20 C; conditions: protein: recombinant; tags: tag-free (expressed from pET-32a-TEV-CNBP, tag removed); intramolecular G4
[2] = target: T1, CNBP (ZNF9); experiment: EMSA; folded in 200 mM Li+; 100 mM LiCl in binding; slightly higher affinity than in K+; EMSA: 20 mM HEPES pH 8.0, 10 mM MgCl2, 1 mM EDTA, 0.5 ug/uL heparin, 1 mM DTT, 1 ug/uL BSA, 10% glycerol, 100 mM KCl or LiCl, 0.75 uM RNA, 30 min 37 C; CD: 10 mM Tris-HCl pH 7.5 + 100/200 mM KCl, protein incubation 30 min 37 C, spectra at 20 C; conditions: protein: recombinant; tags: tag-free (expressed from pET-32a-TEV-CNBP, tag removed); intramolecular G4 (two-quartet)
[3] = target: T1, CNBP (ZNF9); experiment: EMSA; folded in 100 mM Li+; 100 mM LiCl in binding; slightly higher affinity than in K+; EMSA: 20 mM HEPES pH 8.0, 10 mM MgCl2, 1 mM EDTA, 0.5 ug/uL heparin, 1 mM DTT, 1 ug/uL BSA, 10% glycerol, 100 mM KCl or LiCl, 0.75 uM RNA, 30 min 37 C; CD: 10 mM Tris-HCl pH 7.5 + 100/200 mM KCl, protein incubation 30 min 37 C, spectra at 20 C; conditions: protein: recombinant; tags: tag-free (expressed from pET-32a-TEV-CNBP, tag removed); intramolecular G4; minor self-assembled multimer band in Li+
[4] = target: T1, CNBP (ZNF9); experiment: EMSA; folded in 200 mM Li+ or K+; EMSA: 20 mM HEPES pH 8.0, 10 mM MgCl2, 1 mM EDTA, 0.5 ug/uL heparin, 1 mM DTT, 1 ug/uL BSA, 10% glycerol, 100 mM KCl or LiCl, 0.75 uM RNA, 30 min 37 C; CD: 10 mM Tris-HCl pH 7.5 + 100/200 mM KCl, protein incubation 30 min 37 C, spectra at 20 C; conditions: protein: recombinant; tags: tag-free (expressed from pET-32a-TEV-CNBP, tag removed); no G4 formed; predicted 4-bp stem-loop
[5] = target: T1, CNBP (ZNF9); experiment: CD (G4 unfolding); 200 mM K+ folding; 8 uM, 1:1; EMSA: 20 mM HEPES pH 8.0, 10 mM MgCl2, 1 mM EDTA, 0.5 ug/uL heparin, 1 mM DTT, 1 ug/uL BSA, 10% glycerol, 100 mM KCl or LiCl, 0.75 uM RNA, 30 min 37 C; CD: 10 mM Tris-HCl pH 7.5 + 100/200 mM KCl, protein incubation 30 min 37 C, spectra at 20 C; conditions: protein: recombinant; tags: tag-free (expressed from pET-32a-TEV-CNBP, tag removed); intramolecular G4

T1 sequence (P62633 whole entry): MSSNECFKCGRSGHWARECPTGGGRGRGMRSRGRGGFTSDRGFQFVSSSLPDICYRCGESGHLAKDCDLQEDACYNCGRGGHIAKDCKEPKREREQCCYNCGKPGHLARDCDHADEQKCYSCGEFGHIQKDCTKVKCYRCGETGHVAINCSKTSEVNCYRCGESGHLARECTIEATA

B1: -23,877 (structured_RNA)
RNA: GGAUAUGGUUGGUUUGG
- binding result [1]: binds

B2: +644 (structured_RNA)
RNA: GGUAAUAAAGGAGCUGGUGG
- binding result [2]: binds

B3: +3467 (structured_RNA)
RNA: GGAGGAGGUGUUGCAGGA
- binding result [3]: binds

B4: +28,903 (structured_RNA)
RNA: GGCUGGCAAUGGCGG
- binding result [4]: no binding

B5: -13,963 (structured_RNA)
RNA: GGAUCUGGGUAAGGAAGG
- binding result [5]: binds
